Source: patent publication US20180044422A1, “TREATING SOLID TUMOR BY TARGETING DECTIN-1 SIGNALING” (New York University, priority 2016, published 2018)

Assays:
murine Dectin-1 = molecular target: T1, murine Dectin-1 (Mus musculus, UniProt Q6QLQ4); assay: Galectin-coated ELISA with murine Dectin-1 IgG Fc; format: binding; details: galectin-coated plates; Galectin-3/-4/-9 comparison at 2.5 μg/ml Dectin-1 IgG Fc
T1 construct: purchased InvivoGen fc-mdec1a
T1 sequence (Q6QLQ4 71-244 limits assumed): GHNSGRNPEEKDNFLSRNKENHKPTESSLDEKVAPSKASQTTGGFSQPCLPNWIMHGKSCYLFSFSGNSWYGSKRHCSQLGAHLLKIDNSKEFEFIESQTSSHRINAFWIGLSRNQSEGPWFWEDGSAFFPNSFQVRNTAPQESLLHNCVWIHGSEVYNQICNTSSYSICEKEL
Method: (§1) To investigate if Galectin-9 can bind with Dectin-1, Protein G-magnet beads (2 ml; Dynabeads) were loaded with Dectin-1 IgG Fc (1 mg) or control IgG Fc before washing and blocking. Subsequently, beads were incubated with recombinant Galectin-9 ([…]; R&D Systems) for 30 min, washed, and stained with PE-conjugated anti-Galectin-9 (Biolegend, San Diego Calif.). Galectin-9 specific staining was determined by flow cytometry. To investigate the interaction between Galectin-9 and Dectin-1 by ELISA, plates (Maxisorp, Nunc, St. Louis, Mo.) were coated with recombinant mouse Galectin-9 ([…]; R&D Systems, Minneapolis, Minn.), Galectin-3, or Galectin-4 (both […]; Biolegend) for 16 hours at 4° C., blocked with 1% BSA/PBS for 1 hour, and incubated with increasing doses of Dectin-1 IgG Fc or control IgG Fc for 2 hours. The Galectin-bound Dectin-1 IgG Fc was detected with anti-IgG-HRP. For affinity precipitation experiments, protein G-beads were loaded with Dectin-1 IgG Fc and were then incubated with the extract of 6 month old KC pancreata. Bead-bound precipitates were resuspended with loading buffer, resolved by SDS-PAGE under reduced conditions for western blotting using mAbs specific for Galectin-9. To determine whether Galectin-9 induces Dectin-1 signaling, the Dectin-1 reporter HEK293 cell line^16 (Invivogen) was treated with recombinant Galectin-9 (1-10 μg/ml; R&D Systems), d-Zymosan (1-10 μg/ml), or Curdlan (10-100 μg/ml; both Invivogen). Dectin-1 signaling was measured by detection of secreted embryonic alkaline phosphatase. In other experiments, WT and Dectin-1^−/− splenic macrophages were treated in vitro with recombinant Galectin-9 (10 ug/ml). Syk phosphorylation was measured by flow cytometry at 3 hours.
(§2) Non-pathogen derived Dectin-1 ligands have not been well-characterized. […] Bead-IgG Fc complexes were incubated with recombinant Galectin-9 and then labeled with a fluorescently-conjugated αGalectin-9 mAb and tested for fluorescence by flow cytometry. […]

[1] = test system: bone-marrow derived macrophages (BMDM); assay: Dectin-1 expression in bone-marrow derived macrophages; format: cell-based, mouse; details: cytokine added to day 8 BMDM cultures for 24h
human Dectin-1 = assay: Galectin-9-coated ELISA with human Dectin-1 IgG Fc; format: binding; details: Galectin-9 coated plates, increasing doses
human Dectin-1, sequence (Q9BXN2 114-247 limits assumed): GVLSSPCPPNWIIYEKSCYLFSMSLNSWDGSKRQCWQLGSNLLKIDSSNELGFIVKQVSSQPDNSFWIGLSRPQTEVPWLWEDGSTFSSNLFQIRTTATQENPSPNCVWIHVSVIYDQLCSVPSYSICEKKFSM
Method: (§3) To investigate if Galectin-9 can bind with Dectin-1, Protein G-magnet beads (2 ml; Dynabeads) were loaded with Dectin-1 IgG Fc (1 mg) or control IgG Fc before washing and blocking. Subsequently, beads were incubated with recombinant Galectin-9 ([…]; R&D Systems) for 30 min, washed, and stained with PE-conjugated anti-Galectin-9 (Biolegend, San Diego Calif.). Galectin-9 specific staining was determined by flow cytometry. To investigate the interaction between Galectin-9 and Dectin-1 by ELISA, plates (Maxisorp, Nunc, St. Louis, Mo.) were coated with recombinant mouse Galectin-9 ([…]; R&D Systems, Minneapolis, Minn.), Galectin-3, or Galectin-4 (both […]; Biolegend) for 16 hours at 4° C., blocked with 1% BSA/PBS for 1 hour, and incubated with increasing doses of Dectin-1 IgG Fc or control IgG Fc for 2 hours. The Galectin-bound Dectin-1 IgG Fc was detected with anti-IgG-HRP. […] Dectin-1 signaling was measured by detection of secreted embryonic alkaline phosphatase. […] Syk phosphorylation was measured by flow cytometry at 3 hours.
as §2

Dectin-1 [2] = assay: Syk phosphorylation in WT and Dectin-1-/- macrophages; format: cell-based, mouse; details: 10 ug/ml for 3 hours, WT vs Dectin-1-/- macrophages, flow cytometry
Method: as §1, with “To determine whether Galectin-9 induces Dectin-1 signaling, the Dectin-1 reporter HEK293 cell line^16 (Invivogen) was treated with recombinant Galectin-9 (1-10 μg/ml; R&D Systems), d-Zymosan (1-10 μg/ml), or Curdlan (10-100 μg/ml; both Invivogen).” left out, “In other experiments, WT and Dectin-1^−/− splenic macrophages were treated in vitro with recombinant Galectin-9 (10 ug/ml).” left out

Dectin-1 IgG Fc = molecular target: T2, Dectin-1 IgG Fc (Mus musculus, UniProt Q6QLQ4); assay: Protein G bead / flow cytometry Galectin-9-Dectin-1 binding; details: recombinant Galectin-9, flow cytometry
T2 construct: purchased InvivoGen fc-mdec1a
T2 sequence (Q6QLQ4 71-244 limits assumed): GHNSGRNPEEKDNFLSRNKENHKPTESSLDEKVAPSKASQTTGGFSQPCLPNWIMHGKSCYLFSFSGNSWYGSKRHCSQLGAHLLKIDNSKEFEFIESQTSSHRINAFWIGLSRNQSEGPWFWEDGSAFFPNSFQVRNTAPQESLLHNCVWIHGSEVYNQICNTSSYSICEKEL
Method: as §3, §2

Dectin-1 [3] = assay: Dectin-1 reporter HEK293 cell line (secreted embryonic alkaline phosphatase); format: cell-based; details: low and high doses (1-10 μg/ml)
Method: as §1, with “To determine whether Galectin-9 induces Dectin-1 signaling, the Dectin-1 reporter HEK293 cell line^16 (Invivogen) was treated with recombinant Galectin-9 (1-10 μg/ml; R&D Systems), d-Zymosan (1-10 μg/ml), or Curdlan (10-100 μg/ml; both Invivogen).” left out, “In other experiments, WT and Dectin-1^−/− splenic macrophages were treated in vitro with recombinant Galectin-9 (10 ug/ml).” left out

B1: Galectin-4: recombinant Galectin-4 (Biolegend) coated on ELISA plates (protein, UniProt Q8K419 1-326, looked up)
Galectin-4: MAYVPAPGYQPTYNPTLPYKRPIPGGLSVGMSVYIQGMAKENMRRFHVNFAVGQDDGADVAFHFNPRFDGWDKVVFNTMQSGQWGKEEKKKSMPFQKGKHFELVFMVMPEHYKVVVNGNSFYEYGHRLPVQMVTHLQVDGDLELQSINFLGGQPAAAPYPGAMTIPAYPAGSPGYNPPQMNTLPVMTGPPVFNPRVPYVGALQGGLTVRRTIIIKGYVLPTARNFVINFKVGSSGDIALHLNPRIGDSVVRNSFMNGSWGAEERKVAYNPFGPGQFFDLSIRCGMDRFKVFANGQHLFDFSHRFQAFQMVDTLEINGDITLSYVQI
- binding of murine Dectin-1 IgG Fc on ELISA (murine Dectin-1): did not avidly bind

B2: IL-12: cytokine added to BMDM cultures (protein, UniProt P43431 23-215; P43432 23-335, looked up)
Interleukin-12 subunit alpha: RVIPVSGPARCLSQSRNLLKTTDDMVKTAREKLKHYSCTAEDIDHEDITRDQTSTLKTCLPLELHKNESCLATRETSSTTRGSCLPPQKTSLMMTLCLGSIYEDLKMYQTEFQAINAALQNHNHQQIILDKGMLVAIDELMQSLNHNGETLRQKPPVGEADPYRVKMKLCILLHAFSTRVVTINRVMGYLSSA
Interleukin-12 subunit beta: MWELEKDVYVVEVDWTPDAPGETVNLTCDTPEEDDITWTSDQRHGVIGSGKTLTITVKEFLDAGQYTCHKGGETLSHSHLLLHKKENGIWSTEILKNFKNKTFLKCEAPNYSGRFTCSWLVQRNMDLKFNIKSSSSSPDSRAVTCGMASLSAEKVTLDQRDYEKYSVSCQEDVTCPTAEETLPIELALEARQQNKYENYSTSFFIRDIIKPDPPKNLQMKPLKNSQVEVSWEYPDSWSTPHSYFSLKFFVRIQRKKEKMKETEEGCNQKGAFLVEKTSTEVQCKGGNVCVQAQDRYYNSSCSKWACVPCRVRS
- Dectin-1 expression in BMDM [1]: did not influence Dectin-1 expression

B3: Galectin-3: recombinant Galectin-3 (Biolegend) coated on ELISA plates (protein, UniProt P16110 2-264, looked up)
Galectin-3: ADSFSLNDALAGSGNPNPQGYPGAWGNQPGAGGYPGAAYPGAYPGQAPPGAYPGQAPPGAYPGQAPPSAYPGPTAPGAYPGPTAPGAYPGQPAPGAFPGQPGAPGAYPQCSGGYPAAGPYGVPAGPLTVPYDLPLPGGVMPRMLITIMGTVKPNANRIVLDFRRGNDVAFHFNPRFNENNRRVIVCNTKQDNNWGKEERQSAFPFESGKPFKIQVLVEADHFKVAVNDAHLLQYNHRMKNLREISQLGISGDITLTSANHAMI
- binding of murine Dectin-1 IgG Fc on ELISA (murine Dectin-1): did not avidly bind

B4: Galectin-9: recombinant Galectin-9 (R&D Systems), lectin identified as Dectin-1 ligand (protein)
chain: MALFSAQSPYINPIIPFTGPIQGGLQEGLQVTLQGTTKSFAQRFVVNFQNSFNGNDIAFHFNPRFEEGGYVVCNTKQNGQWGPEERKMQMPFQKGMPEFELCFLVQRSEFKVMVNKKFVQYQHRVPYHLVDTIAVSGCLKLSFITFQNSAAPVQHVFSTVQFSQPVQFPRTPKGRKQKTQNFRPAHQAPMAQTTIHMVHSTPGQMFSTPGIPPVVYPTPAYTIPFYTPIPNGLYPSKSIMISGNVLPDATRFHINLRCGGDIAFHLNPRFNENAVVRNTQINNSWGQEERSLLGRMPFSRGQSFSVWIICEGHCFKVAVNGQHMCEYYHRLKNLQDINTLEVAGDIQLTHVQT
- binding of human Dectin-1 IgG Fc on ELISA (human Dectin-1): dose-dependent manner
- binding of murine Dectin-1 IgG Fc on ELISA (murine Dectin-1): dose-dependent manner
- Syk phosphorylation (Dectin-1 [2]): activated Syk in a Dectin-1-dependent manner
- binding to bead-bound Dectin-1 IgG Fc (Dectin-1 IgG Fc): avidly ligated
- Dectin-1 activation (NF-κB signaling) in reporter cells (Dectin-1 [3]): induced NF-κB signaling
